# Measurements: the DeepSol protein solubility set
# Test: soluble on expression in E. coli; label from the status in PepcDB or PDB records
row,Sequence,soluble on expression in E. coli
1,MFPLNFHYEDVLRQDLLLKLNYANVMEVPGLCEIRVVPKAPYNFIIKNGKLAMEIPCGQKFIQTQRGSTGKSFRSNPFLGSNKDKGYVSDLARQSTLRGHGMSNFLVRILTVMSLLDFPVEIRKNSIQFSMETEFCEFSPELEDHFEIFEHIRGFNVTIITSANTQDETLLLWSGFLQKDEGETQLEHHHHHH,not soluble
2,GSEQQDLDDLAQVILSAVTSNTDTSKSARAQALSTALASSLADLLISESSGSSYQTQISALTNILSDCFVTTTGSNNPAFVSRVQTLIAVLSQSSSNAISGATGGSAFAQSQAFQQSA,soluble
3,MVLFSEDHIQETRRRGRIEVICGSMFSGKTEELIRRMKRAKFARQRVEIFKPAIDTRYSEEDVVSHDSHSIASTPIDSSASILLFTSEIDVVGIDEAQFFDDGLIDVCRQLANNGIRVIIAGLDMDFKGNPFGPMPQLCAIADEVSKVHAICVKCGDLASFSHRTVKNDKQVLLGETAEYEPLCRECYLRARGEDGQKILEHHHHHH,soluble
4,MGSDKIHHHHHHMLNAKLLKLPTAAQQHHHEHHQIVVGVRGQAELSIDGSGACLDTWKACLVPTEARHDYCGDQQNHVLVINVDPFCAALSTPLHSDYDKLMRLFEKPRTVQMDNRIQGLVQFAAGEFDRSPDNRALHQHLAASILHCMAERIVDRPPVSSNRNSLNPEDIRRYIVGNLHRKITVQDLAGVACLSVSRFHEIFRQVTGTTPHQFLLQTRLDQAVGLLSSTSLSVSEISYRTGFSSQSALTNALRKHRGITPSRLQLNEHVA,not soluble
5,MAGHSMREHEVYSKLRAPPSSRMILRLDGRGFHRLTESLDFDRPYDEAFRDLMIRTCLDLMEEFSPSLIYTFSDEINVLLDSVPFAGRVEKLDSVFSGFASSSFTRGALEAGFSPVKPVSFDCRVIPISSDIVPEYFRSRQDESWRNCLNSYAYWTLRREVGARRAAERLRGLKSDSLHDLLFERGVNISRVPAWQRRGVGVYRVPHRVRGYNPIRDEEVSAVRMRVKVDLELPLFTDEFFEGLMRLEHHHHHH,not soluble
6,MKTLLSLGHGYSAQALAHRLLPQGWTVIGTTRSAAKAAELEAGGIEPLLWPGDLGPALARASHILASAAPGREGDPFLATHGAELARADARWVGYLSTTGVYGDHAGGWVDEDTPLTPSTERGQARVQAERQWQALGLPLHIFRLAGIYGPGRGPFEKVRDGTARRIVKPGQVFSRIHVADIAQVLEASMQHPEPGAIYNVCDDDPAPPEDVLGYAAELLGLPPPPEVPYDEAEMTPMARSFYAESKRVRNDRIKARLGIALLHPDYRSGLRSLLAGGD,not soluble
7,MGSDKIHHHHHHMDKQLWEKAVAFHGHECPGLAIGFRACEAVQEKMGLKFSQDEEVVCVTENDACGADAVQVITGCSFGKGNLIYRGTGKMAFSFFSRNTGESMRIVLKPSSSEMDRQERQNYILTAPMDDVFEFKKPGFTLPKQARLFKTVICEVCGEGAPEHKMRLQEGKKVCLDCFEDYSRGY,not soluble
8,MTQFNPVDHPHRRYNPLTGQWILVSPHRAKRPWQGAQETPAKQVLPAHDPDCFLCAGNVRVTGDKNPDYTGTYVFTNDFAALMSDTPDAPESHDPLMRCQSARGTSRVICFSPDHSKTLPELSVAALTEIVKTWQEQTAELGKTYPWVQVFENKGAAMGCSNPHPHGQIWANSFLPNEAEREDRLQKEYFAEQKSPMLVDYVQRELADGSRTVVETEHWLAVVPYWAAWPFETLLLPKAHVLRITDLTDAQRSDLALALKKLTSRYDNLFQCSFPYSMGWHGAPFNGEENQHWQLHAHFYPPLLRSATVRKFMVGYEMLAETQRDLTAEQAAERLRAVSDIHFRESGV,soluble
9,MFRAMSTRKIHGGYEKLGDEEARLKRVSSVPASVYGHSRNPVQEVKKTPTAKPTGGSVHPLFSFFDVHFQRKKKNTAKKKSLATAKPEFARYMEYVREGGVWDPSSNAPVIHYR,not soluble
10,MKLAVITDSSVYLPQDFVQREDLFILDIDITIDGKTYIEGKNLSLDEFYTKMAASKELPKTSQPNLAELDDLLTNLEEEAYTHVIGLFLSGGISGFHQNIQYLIAEHDKLEIAFPDTKITSSPMGLMVMEALKWGREEIAFEQILVNLQVMIDKTNAFIMVDDLNHLVKGGRLSNGSALLGNLLSIKPILYFTNGRIEVFEKVRTEKKAIKRLISIIDEVTADGSYMVYIIHANARGKAEDLQKRLVDHGYTKNLAIVPFNGVIATHLGEGAIALGAIPII,not soluble
11,KASEEGIGGRKTCEYYPCHFEGQNCTFCFCPFYPCENEKTGGKWIQSSRGGRVWSCVDCHLVHKKEIAQKILDCLMHEGDTDELVKVAWKEVMEPIL,not soluble
12,MPLEASELKPTAGPLEASELKPTAGPLEASELKPTAGPLEASELKPTAGPLEASELKPTAGPLEASELKPTAGPLEASELKPTAGMPSVQQDITHPKELLISTNWLNRKDVPFMNNQEQQIQNVLNTLRDPDTIRTRSHRILNLAKQNRLEHFSLNPERMTTTASYIVDIITSRYPELDIPYHSRWRHFEMDGLPRIHNLRKQLDPISPSEWGKILYELVIISVFLDAGAGPLWRYKEALTEKEYSRSEGLALASLYLYESGAFSADPTNPFRVDAERLLDFKETDLIKGFQVSSTNLLEGIPGRVSLLNRLGEIIHRKEHCFNRRKRLGEFYTYVESLQDNKILPTTKLFEAVLETFNDIWPVRLIYHGVSLGDVWIHSALKTNEAGSEYIPFHKLSQWLTYSLVEPLEQTGIDIADLDVLTGLPEYRNGGLLIDTELLKVRNNKILEQPQDPGSEPIVEWRALTVALLDELALLIRQQLNMNAESLPLAKILQGGTWEAGRQIAQKKRINGTPPIEIISDGTIFLEHHHHHH,not soluble
13,MQFYAALFDFPCVPEISGPQPGNDEKSWQRDFLALTNARGTFDPWDTQTCQPCTLEGIVSRNHDAFSVADFSHNVFKYVRKNHVKTTVHWKRHWQRARMAHEFVYGEQS,not soluble
14,MAHHHHHHMYAGFPRLNVTEAQETVDLDFELTNEKGCVKVTEFPVPKVVNLSFPAVCALLYNARTATSSRNIFGSVIGLQLQDTVEVTDVKTNPSIDIEEDDRMTEEERMERVRKERKLLDADKAIFENMYNQENLDTNVIGQFVVSSARFNPFSTRTMRKLQELHRESLPAILLTYDPFRTGLLGRPHIRAYTPTAAYYKYDSLVSTERGYQRRRSLAQYAKESGITKEGVLHEIPVKLEVDAFHKLNLMNVPPTAVGDSFKAIQSMAVSNYIEALLSSIRNNTDQLKQKLDYEGNVKDNGNVPVGQDAETMLLMKHVRDQTDHLDALCDSALLYSSLLRDL,soluble
15,MLCFFDPGNFDIGDSVNDVEVKFNRAWTSVIGTKIDFAEKYSINIEGYYKYVFDRGYITADTSTGTITPSFNFDGVGKVWGFDIQLQKLESRYWDGWISYTYTWAKYNDPSGGNNGISNGSTNTINDSWYYPSFHRFHNFNLVLNIKPLLWFNIALRFGFASGQPRRRIDNKIYPYPVLIVNEDNEMVILQKYRRNSWYDENERTPWSFPLDIKFSFFPVNKNGRTSMEIYAAGENMMSLFYSPPGRTTFNQYTGKEDQGSSSGSFDLPIPMVSFGIKWRY,not soluble
16,SSNVIIMGHKFPDMDSIGAAIGILKVAQANNKDGFIVIDPNQIGSSVQRLIGEIKKYEELWSRFITPEEAMEISNDDTLLVIVDTHKPSLVMEERLVNKIEHIVVIDHHRRGEEFIRDPLLVYMEPYASSTAELVTELLEYQPKRLKINMIEATALLAGIIVDTKSFSLRTGSRTFDAASYLRAKGADTVLVQKFLKETV,not soluble
17,MKEYLTNERIRAKQVRVVGPDGKQLGIMDTREALRLAQEMDLDLVLVGPNADPPVARIMDYSKWRYEQQMAEKEARKKAKRTEVKSIKFRVKIDEHDYQTKLGHIKRFLQEGHKVKVTIMFRGREVAHPELGERILNRVTEDLKDLAVVEMKPEMLGRDMNMLLAPVKVSA,soluble
18,MSLATLAELYEFLETKQDDSHLDSRFSYDAFLPVEQPKARLEILTWWKIERLIEDENCNFDKNFIVSYFDERVKATNNQLLKYRYNYFISLLTNDNRYAKQSIDALIAVINTLLPKDKEDYPHVAEKAIEVLMSLIKRVKYKIPEATDLIWGVLESDYGYRTKMVCIRLAKEKGFFPSRDAKKIVCLCKDLLSLVKDSWRENCCELGLFYSSKIQGEAKPYMNFFYEALGDMEMGQLVDPATAPNNIAIPWMNEDHSQKAMAFYQKAGLTQKRNRAELAFRENKKKMVMLHFKIEKKTDKKIVEYFGNLEKELLEGKLSWLLENLSCPVRFLFPSYEQIRLRMSASKSTVEKLGFENKIMDINGNSKDAGKDFDLRQKYGIWLMNIVRNTVINMILTAVNIKQLTYSKLRKWFLKNTCFGIQLEYTRSGQVVTTTWFSQIDYGVEALIKQYNRFLQGKPTDWRLPVDILSIRFEGILRDMVGDYGGCVTKVGRDNSISQALLDDLLREPCLLQIFRKEDIEFFEYVFTAKGYNIRNYVAHAFYIPQDYGMIEATLVFLCILRLTMFSPKSKTITANEGHHHHHH,not soluble
19,DDHSRALGRTTVNSNLGQGQVSGAESGAKTAEPAWIDFMQVALEGKPEQGKNIPDDIVRVRIDRNSGLLTHKVDSTSMFEYFEKGTEPTEYVGNSLEDSIYSSGSGGTTEELF,not soluble
20,MGSSHHHHHHGKTIFVIVPTNEEQVAFLEALAKQDELNFDWQNPPTEPGQPVVILIPSDMVEWFLEMLKAKGIPFTVYVEEGGSENLYFQGGGGGGTCMMGLEIRPKVVSFAQEKALALRQENAASLTQHYRNVWFEQMNVMKFGSNCFTKGQLSRLFFCYPDPHWKRKNIRRRIISPGLVQEYAYWLRHGGLVYTVSDVAELEEWMVQCLDDSPLFRRLAEAELCTPEHKQVLEIVTGASEDAQRTARKGLQKHFAVHMRI,not soluble
21,MKPNITWGLQKIQAHGIADNTIYATEGTQIIFTVTSPWIPVFKVNDDVKIALTLTRHEEAWWIINQSTEYCCTVNDQIVEPHHRMRLNEGDLIEWGLSS,not soluble
22,MDIRARTKIIDIYSNLKYKKPLKSFQKILTTSDSDNCEDFFNIGLNIDKNKITAIGFDGDGCIISTIATELSIKAIENKTINQAKKILSDLIATYKDKNSANQVVEELKLLIEMNVTEKRLQCLLLTPSNLLQWFKNF,not soluble
23,MGSDKIHHHHHHMALFEGYERRIDGINTVLKKYGMNSIEDAKKVCDEKGINVYDIVRSIQPICFENACWAYTLGAAIAIKNGCTSASDAAKNIGEGLQAFCIPGSVADDRKVGLGHGNLGAMLLSEDAKCFAFLAGHESFAAAEGAIGIAKSANKVRKEPLRVILNGLGKDAAQIISRINGFTYVQTQFDYYTGELKIVKETAYSKGERAEVRCFGADDVREGVAIMHHEGVDVSITGNSTNPTRFQHPVAGTYKKECFEMGKKYFSVASGGGTGRTLHPDNMAAGPASYGMTDTMGRMHSDAQFAGSSSVPAHVDMMGLIGMGNNPMVGATVAVAVAIEEAMK,not soluble
24,MAHHHHHHMTFSVKGGSYSSSHPSPAMHPYVSPSLLPQSHGQQAPPSFSLGDEQYVGVPKRVGVDPTKYKTTICRNWEQTGTCAFRGCTFAHGVEELRAPLRPDGHTPVLRPQHISPGSTPPLRASQPPPPPSSGHYTLEQLLDMLYKEVLHQRELVTVHVEANTTLEGMLRREQAQHDASKKQLEEKTQQCELFARELFARNQQLRKAADSSPEIKELLDQWETQLASFSEADVKKDDVFHTATATSSTDDGGDSGKEYESARIEELLRALQR,not soluble
